In patent US20150368323A1 (MorphoSys, published 2015):
Changes are numbered by the printed parent chain. Ends that are not written are not given here.

T1: MprF protein of Staphylococcus aureus (Staphylococcus aureus, UniProt Q2G2M2 1-840)
T1 construct: Presented on whole S. aureus cells (Protein A deletion mutant, delta spa; SA113 delta spa in the functional assays); also called MprF on S. aureus
T1 sequence: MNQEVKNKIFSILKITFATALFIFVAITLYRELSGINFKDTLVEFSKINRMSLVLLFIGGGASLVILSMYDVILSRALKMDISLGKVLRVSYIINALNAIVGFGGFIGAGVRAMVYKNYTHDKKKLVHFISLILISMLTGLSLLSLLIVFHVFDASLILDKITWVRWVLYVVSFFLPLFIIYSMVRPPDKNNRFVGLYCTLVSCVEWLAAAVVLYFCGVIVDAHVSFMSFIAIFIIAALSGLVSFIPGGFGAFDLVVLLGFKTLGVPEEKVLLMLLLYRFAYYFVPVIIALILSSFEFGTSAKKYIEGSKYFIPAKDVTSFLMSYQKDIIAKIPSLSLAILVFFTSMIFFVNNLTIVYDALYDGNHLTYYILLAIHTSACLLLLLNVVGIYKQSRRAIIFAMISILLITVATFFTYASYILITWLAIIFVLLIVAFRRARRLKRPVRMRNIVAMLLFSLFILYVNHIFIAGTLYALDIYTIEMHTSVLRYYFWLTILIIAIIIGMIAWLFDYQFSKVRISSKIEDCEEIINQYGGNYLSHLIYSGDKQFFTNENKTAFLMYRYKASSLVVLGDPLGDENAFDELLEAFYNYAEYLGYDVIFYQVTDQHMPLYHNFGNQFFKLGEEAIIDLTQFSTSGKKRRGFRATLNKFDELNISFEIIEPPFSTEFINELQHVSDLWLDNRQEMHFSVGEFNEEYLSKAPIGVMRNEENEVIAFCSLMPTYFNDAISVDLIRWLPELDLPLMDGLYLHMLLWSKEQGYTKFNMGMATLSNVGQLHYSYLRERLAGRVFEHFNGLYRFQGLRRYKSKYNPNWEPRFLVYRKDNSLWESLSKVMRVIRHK

T2: Linear peptide, loop 1 of MprF (Staphylococcus aureus, added N-terminal Cysteine coupled to carrier protein BSA or transferrin; FIG. 2 legend calls it biotinylated)
T2 construct: coated as BSA or transferrin conjugate in the ELISA; also called linear loop 1 peptide
T2 peptide: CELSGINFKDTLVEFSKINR

T3: Linear peptide, loop 4 of MprF (Staphylococcus aureus, also: N-terminal Cys coupled to BSA or transferrin, called biotinylated legend)
T3 construct: coated as BSA or transferrin conjugate in the ELISA; also called linear loop 4 peptide
T3 peptide: CGLGFKTLGVPEEKV

B1: M-C5.1 (antibody, V domains shown)
VH: QVQLVQSGAEVKKPGSSVKVSCKASGGTFSSYAISWVRQAPGQGLEWMGGIVPIFGTANYAQKFQGRVTITADESTSTAYMELSSLRSEDTAVYYCARVRYGYWDVWGQGTLVTVSS
VL: DIQMTQSPSSLSASVGDRVTITCRASQDIANWLNWYQQKPGKAPKLLIYAASSLQSGVPSRFSGSGSGTDFTLTISSLQPEDFATYYCQQYISLPITFGQGTKVEIKR
notes: Framework VH1A kappa 1; also called M-05.1
B2: M-L1 (antibody, V domains shown)
VH: QVQLVQSGAEVKKPGSSVKVSCKASGGTFNSYAIHWVRQAPGQGLEWMGGIIPIFGIANYAQKFQGRVTITADESTSTAYMELSSLRSEDTAVYYCARDQYTYDYYRAFDYWGQGTLVTVSS
VL: DIVLTQSPATLSLSPGERATLSCRASQSVRDNLAWYQQKPGQAPRLLIYGASNRATGIPARFSGSGSGTDFTLTISSLEPEDFAVYYCQQYDHSPRTFGQGTKVEIKR
notes: Framework VH1A kappa 3
B3: M-C5.2 (antibody, V domains shown)
VH: EVQLLESGGGLVQPGGSLRLSCAASGFTFSSYAVHWVRQAPGKGLEWVSVISGRGGSTYYADSVKGRFTISRDNSKNTLYLQMNSLRAEDTAVYYCARDHGYFDYWGQGTLVTVSS
VL: DIQMTQSPSSLSASVGDRVTITCRASQTISNHLGWYQQKPGKAPKLLIYTASNLQSGVPSRFSGSGSGTDFTLTISSLQPEDFATYYCQQYSHSSYTFGQGTKVEIKR
notes: Framework VH3-23 kappa 1; also called M-05.2
B4: M-C6.2 (antibody, V domains shown)
VH: QVQLVQSGAEVKKPGSSVKVSCKASGGTFSSYAISWVRQAPGQGLEWMGGIIPILGIANYAQKFQGRVTITADESTSTAYMELSSLRSEDTAVYYCARSLPYRSDLYGFSRWSYHRVGMDVWGQGTLVTVSS
VL: B1 VL with A30S, W32T, S53T, Y91V, I92G, L94F, I96Y
notes: Framework VH1A kappa 1
B5: M-C4.2 (antibody, V domains shown)
VH: EVQLLESGGGLVQPGGSLRLSCAASGFTFSSYAMHWVRQAPGKGLEWVSVISSVGSSTYYADSVKGRFTISRDNSKNTLYLQMNSLRAEDTAVYYCARGGLDVWGQGTLVTVSS
VL: B1 VL with A30S, N31K, W32Y, S53R, Y91G, I92D, L94T, I96F
notes: Framework VH3-23 kappa 1
B6: M-C6.1 (antibody, V domains shown)
VH: QVQLVQSGAEVKKPGSSVKVSCKASGGTFSIYAISWVRQAPGQGLEWMGGIIPEFGTANYAQKFQGRVTITADESTSTAYMELSSLRSEDTAVYYCARSQIYTLSYPKWFDFWGQGTLVTVSS
VL: B1 VL with A30S, W32Y, A50D, S53N, Q89L, I92L, S93Q, L94S, I96K
notes: Framework VH1A kappa 1
B7: M-L4 (antibody, V domains shown)
VH: EVQLLESGGGLVQPGGSLRLSCAASGFTFRSYAMSWVRQAPGKGLEWVSIISYDGSSTYYADSVKGRFTISRDNSKNTLYLQMNSLRAEDTAVYYCARTATSGSRGYFDYWGQGTLVTVSS
VL: B1 VL with A30S, N31S, Y49F, A50G, S53T, Y91H, I92Y, S93T, L94S, I96V
notes: Framework VH3-23 kappa 1
B8: M-C4.3 (antibody, V domains shown)
VH: QVQLVQSGAEVKKPGSSVKVSCKASGGTFSDHTISWVRQAPGQGLEWMGGIIPIVGIANYAQKFQGRVTITADESTSTAYMELSSLRSEDTAVYYCAREYYVPDSGWFDYWGQGTLVTVSS
VL: DIQMTQSPSSLSASVGDRVTITCRASQDISDYLVWYQQKPGKAPKLLIYDASNLQSGVPSRFSGSGSGTDFTLTISSLQPEDFATYYCQQYYHYRTFGQGTKVEIKR
notes: Framework VH1A kappa 1
B9: M-C1 (antibody, V domains shown)
VH: EVQLLESGGGLVQPGGSLRLSCAASGFTFSSYAMNWVRQAPGKGLEWVSVISSDGSDTYYADSVKGRFTISRDNSKNTLYLQMNSLRAEDTAVYYCARESYYIGWDYWGQGTLVTVSS
VL: DIVLTQSPATLSLSPGERATLSCRASQRVSSSFLAWYQQKPGQAPRLLIYLASNRATGIPARFSGSGSGTDFTLTISSLEPEDFAVYYCLQYGHYPPTFGQGTKVEIKR
notes: Framework VH3-23 kappa 3
B10: M-C4.5 (antibody, V domains shown)
VH: QVQLQQSGPGLVKPSQTLSLTCAISGDSVSSNSAAWNWIRQSPSRGLEWLGRTYYRSKWYNDYAVSVKSRITINPDTSKNQFSLQLNSVTPEDTAVYYCARSAEPSYAYYHGFDYWGQGTLVTVSS
VL: DIQLTQSPSFLSASVGDRVTITCRASQGISSYLAWYQQKPGKAPKLLIYAASTLQSGVPSRFSGSGSGTEFTLTISSLQPEDFATYYCQQRIIFPQTFGQGTKVEIKR
notes: Selected from the MorphoSys Ylanthia library; framework VH6-1

Molecular target: T1, MprF protein of Staphylococcus aureus
Test: whole cell ELISA on S. aureus delta spa versus delta spa delta mprF

Binder	binding result
B1	binds
B2	binds

Molecular target: T1, MprF protein of Staphylococcus aureus
Test: whole cell ELISA on S. aureus; E. coli as negative control

Binder	binding result
B3	binds
B4	binds
B5	binds
B6	binds
B7	binds
B8	binds
B9	binds
B10	binds

Molecular target: T2, Linear peptide, loop 1 of MprF
Test: ELISA, IgG on the peptide used in its selection (Table 2)

Binder	binding result
B2	binds

Molecular target: T3, Linear peptide, loop 4 of MprF
Test: as above

Binder	binding result
B7	binds
